According to doi:10.1101/2025.07.04.663224:

Assays:
[1] = target: SmGdpP74 (cytosolic region of Streptococcus mutans GdpP, residues 74-654) (Streptococcus mutans strain NCTC10449); experiment: cryo-EM structure
[2] = target: SmGdpP74 (cytosolic region of Streptococcus mutans GdpP, residues 74-654) (Streptococcus mutans strain NCTC10449); experiment: AUC
[3] = target: SmGdpP74 (cytosolic region of Streptococcus mutans GdpP, residues 74-654) (Streptococcus mutans strain NCTC10449); experiment: cryo-EM structure; remark: listed apart in the source
[4] = target: SmGdpP74 (cytosolic region of Streptococcus mutans GdpP, residues 74-654) (Streptococcus mutans strain NCTC10449); experiment: cryo-EM structure; remark: listed apart in the source
[5] = target: SmGdpP74 (cytosolic region of Streptococcus mutans GdpP, residues 74-654) (Streptococcus mutans strain NCTC10449); experiment: SEC

Measured: stoichiometry N

SmGdpP74 (cytosolic region of Streptococcus mutans GdpP, residues 74-654) (domain or fragment)
4: all assays above
